B1: BA1 (antibody, V domains shown)
VH: QVQLVQSGAEVKKPGASVKISCKASGYSFTAYYIHWVKQAPGQGLEWIGYISSYNGATNYNQKFKGRVTFTTDTSTSTAYMELRSLRSDDTAVYYCARDYDYDVGMDYWGQGTLVTVSS
VL: DIVMTQSPDSLAVSLGERATISCRASESVDNYGISFMKWFQQKPGQPPKLLIYAASNQGSGVPDRFSGSGSGTDFTLTISSLQAEDVAVYYCQQSKEVPWTFGGGTKVEIKR
B2: BA2 (antibody, V domains shown)
VH: EVQLVESGGGLVQPGGSLRLSCAASGFTFTDNWISWVRQAPGKGLEWVGYISPNSGFTYYADSVKGRFTISADTSKNTAYLQMNSLRAEDTAVYYCARDNFGGYFDYWGQGTLVTVSS
VL: DIQMTQSPSSLSASVGDRVTITCRASQDVSTAVAWYQQKPGKAPKLLIYSASFLYSGVPSRFSGSGSGTDFTLTISSLQPEDFATYYCQQSYTGTVTFGQGTKVEIKR
B3: 12.3 1C1 (antibody, V domains shown)
VH: DVQLQESGPDLVKPSQSLSLTCTVTDHSITSGYSWHWIRQFPGNKLEWMAYIHYSGYTHYNPSLKSRISITRDTSKNQFFLHLNSVTTEDSATFYCAGSDYSANEGAMAYWGQGTSATVSS
VL: DIVLTQSPASLAVSLGQRATISCRASESVDSFGNSFMHWYQQKAGQPPKLLIYRTSNLQSGIPARFSGSGSRTDFTLTINPVEADDVATYYCQQSNEDPWTFGGGTKLEIKR
B4: 12.55 (antibody, human IgG2, V domains shown)
VH: EVQLVETGGGLVQPGGSLRLSCAASGFTFSDYAMSWVRQTPGKGLEWVSTISGSGGDTFYADSVKGRFTISRDNSKNTLYLQVNSLRAEDTAVYYCAKDKNRGAYADAFDIWGQGTMVTVSS
VL: QAVLTQPASLSASPGASASLTCTLRSDINVATYRIYWYKQKPGSPPQYLLTYKSDSDKQQGSGVPSRFSGSKDSSANAGILLISGLQSDDEADYHCMVWHKSAPIFGGGTKVTVLG

Biological target: DLL4 protein (R&D Systems) (Homo sapiens (Human), UniProt Q9NR61 27-524)
Assay: cell-based or functional assay

DLL4 protein (R&D Systems), sequence (Q9NR61 27-524 limits assumed): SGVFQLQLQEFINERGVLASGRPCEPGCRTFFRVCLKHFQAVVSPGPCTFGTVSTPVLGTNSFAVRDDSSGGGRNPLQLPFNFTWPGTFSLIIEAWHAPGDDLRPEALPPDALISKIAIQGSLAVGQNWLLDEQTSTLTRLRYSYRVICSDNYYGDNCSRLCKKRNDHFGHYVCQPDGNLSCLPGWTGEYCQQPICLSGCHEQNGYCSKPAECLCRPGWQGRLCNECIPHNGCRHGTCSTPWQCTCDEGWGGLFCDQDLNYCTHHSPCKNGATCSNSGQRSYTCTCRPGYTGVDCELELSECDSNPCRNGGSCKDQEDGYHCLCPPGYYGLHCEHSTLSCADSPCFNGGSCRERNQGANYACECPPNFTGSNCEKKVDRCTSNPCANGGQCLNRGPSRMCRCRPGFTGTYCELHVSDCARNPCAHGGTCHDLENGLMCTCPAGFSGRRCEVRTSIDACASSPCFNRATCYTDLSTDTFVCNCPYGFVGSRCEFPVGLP

Binder	EC50, HUVEC proliferation on DLL4-coated wells (CellTiter Glo, day 3) [nM]	EC50, HES1 luciferase reporter in HELA cells on DLL4-coated wells [nM]
B1	60	–
B2	45	–
B3	3.9	–
B4	–	21.9

From WO2012092539A2 (dated 2012)
